Data set [1] has as its system F4/80+ macrophages / CD34+ cells in the bone marrow. Particulars: mouse, in vivo, po.
The test system is the same in data set [2]. Particulars: mouse, in vivo; cited from earlier work.
The subject of a further data set is GP2+M cells of PPs. In words: Ligated intestinal loop assay with FITC-RAP. It counts as in vivo, C57BL/6 mice. The protocol:
(§1) The tissues collected from the above dynamic distribution analysis were homogenized using a 3-fold volume of 0.1 mol/L phosphate buffer (pH 7.4) and centrifuged at 15,000 rpm for 10 min. Especially, the PP collected from the ligated loop assay model were homogenized using 200 μL PBS and centrifuged at 15,000 rpm for 10 min. The supernatant was collected and stored at −20° C. for chromatographic analysis. The separation was achieved on a TSK GMPWXL column (164× 7.8 mm i.d., 10 μm) system operated at 40° C. using an Agilent-1100 HPLC system equipped with FLD. Ammonium acetate aqueous solution (20 mM) was used as a mobile phase at a flow rate of 0.6 mL/min. The excitation wavelength and emission wavelength of FLD were 495 and 515 nm, respectively.
C57BL/6 wild-type (WT) mice, and GP2^−/− C57BL/6 mice were anesthetized using isoflurane. To prepare ligated intestinal loops, incision was made near the linea alba of the abdomen to expose the small intestine. FITC-RAP (10 mg/mL) in 100 μl PBS was injected into the ligated intestinal loop. The mice were kept under anesthesia for 1 h after the injection. PPs were excised and rinsed with PBS 5 times. The cleaned PPs were photographed using an IVIS Lumina XR and then processed for HPGPC-FLD analysis, whole-mount staining, sectioning, and further microscopic analysis.
Frozen sections of PPs from the ligated loop assay were washed three times with PBS and blocked with 5% normal goat serum in PBS for 1 h. Sections were incubated with anti-mouse GP2, anti-mouse NKM 16-2-4 antibody, or anti-mouse CD11c antibody overnight at 4° C. PPs sections were washed three times with PBS and then treated with Alexa Fluor647 secondary goat anti-rabbit, […] anti-rat antibodies for 1 h at RT, followed by three consecutive PBS washes. The cell nuclei were stained with 1 μg/mL 4′,6-diamidino-2-phenylindole (DAPI) for 15 min. Sections were washed three times with PBS and mounted with an anti-fade mounting medium. Images were captured with a Leica TCS SP8 confocal laser scanning microscope.
For whole-mount staining, mouse PPs were isolated from the small intestine and washed 3 times with 1×ice-cold PBS. The PPs were fixed in 4% paraformaldehyde overnight at 4° C. and then permeabilized with 0.1% Triton X-100 for 30 min. PPs were blocked with 5% normal goat serum in PBS for 1 h. A primary rat anti-mouse glycoprotein 2 (GP2) and 1 μg/ml DAPI in PBS were used to incubate PPs for 1 h at RT, followed by rinsing 3×5 mins with PBS. The second goat anti-rat IgG antibody conjugated with Alexa647 was further stained for 1 h at RT. PPs were washed 3×5 mins with PBS and mounted with the anti-fade reagent. Images were analyzed and captured by a confocal laser microscope (SP8, Leica Microsystems).
For the detection of RAP-induced immune responses, tumor tissues and PPs were minced into small pieces and grounded with a syringe plug. For the isolation and identification of M cell, PPs and small intestine segments collected from FITC-RAP-treated mice were incubated in PBS with 0.5 mM EDTA and stirred at 37° C. for 20 min. For the isolation and detection of dendritic cells, PPs collected from WT mice and GP2--mice were ground with a syringe plug. Tissues and cells were collected and rinsed with ice-cold PBS at 400 g for 5 min, followed by filtering through a 70 μm filter. Single cell suspensions were prepared for antibody staining. Cells were incubated with antibodies or the matching isotypes for 25 min at RT. The stained cells were rinsed twice and re-suspended in PBS and analyzed by FACSAria III (BD Biosciences). Data analysis was performed with FlowJo V10 software.

Data set [3] relates to GP2+M cell (M-like cells). In words: In vitro M-cell-like model (Caco-2 / Raji B co-culture on transwell inserts). The note with it: confocal microscopy. It counts as cell-based, human. As to the method:
Caco-2 cells were grown in flasks in 10% (v/v) fetal calf serum DMEM at 37° C. under a 10% CO2 water-saturated atmosphere. Caco-2 cells were grown on Transwell polyester inserts (0.3 μm pore size, 12 mm diameter, Corning Costar) coated with 100 μg/mL matrigel basement membrane matrix phenol red-free (Becton Dickinson), prepared in pure cold DMEM without phenol red. Raji B cells (5× 10^5) were resuspended in DMEM and added to the basolateral chamber of 7-day-old Caco-2 cell monolayers. The co-cultures were maintained for 5 days. Mono-culture of Caco-2 cells, cultivated as above but without the Raji B cells, were used as control. […] The transportation function of this in vitro M cell model was first validated using nanoparticle. FITC-RAP (2 mg/mL) in 400 μl DMEM were added to the upper layers of mono-culture and co-culture inserts and then incubated for 2 h at 37° C. under 5% CO2. All inserts were removed, and lower solutions were collected for chromatographic analysis. The lower solution collected from the co-culture group treated with unlabeled RAP was further used to treat RAW264.7 cells in a 96-well plate for 24 h, and the supernatants were sampled for IL-6 and IL-12 detection using ELISA kits.
Three co-culture and mono-cultures inserts were used to detect the presence of M-like cells by immunofluorescence. […]

The next data set relates to human GP2+M cells. In words: Ligated loop assay on human distal ileum explants with PPs. The protocol:
Twenty volunteers who needed surgery were enrolled in this study. The age of the participants ranged from 20 to 50 years. All distal ilea of the small intestine were collected after their surgeries. Twenty samples of the small intestine with PP were used in this study. In brief, the small intestines with PPs were stored in ice-cold PBS with 5% FBS after surgery. The small intestine segment was ligated with a surgical suture for the ligated loop assay. It then was injected with 10 ml FITC-RAP solution (5 mg/ml) followed by incubation at 37° C. under 5% CO2 for 2 h. PPs were collected for whole-mount staining, preparation of frozen sections, and immunofluorescence staining.

Data set [4] in a line: Dynamic distribution of FITC-labeled polysaccharides in the gastrointestinal system and organs of mice after gavage. It counts as in vivo. The note with it: 0 to 5 h after gavage. The protocol:
FTIC-RAP (10 mg in 1 mL distilled water) was orally administrated to each mouse (n=6). After the mice were sacrificed at 0, 1, 2, 3, 4, and 5 h after oral administration, blood and major tissues, including liver, spleen, kidney, stomach, small intestine, mesenteric lymph nodes (MLN), Peyer's patches (PPs), caecum, and colon, were collected and imaged using an IVIS Lumina XR in vivo imaging system (PerkinElmer) immediately. The molecular size of FITC-RAP was monitored using high-performance gel-permeation chromatography. For Western blotting (WB), PPs from different groups were collected at other time points (0, 1, 2, 3, and 4 h after oral administration) and prepared for WB. For ELISA assay, PPs were collected 24 hours after RAP treatment, then homogenized and centrifugated at 15,000 rpm for 10 min to obtain the supernatant for cytokine production assessment using ELISA kits. Similarly, the dynamic distribution of FITC-DOP control in MLN and PPs was investigated.
as §1
The intestinal contents of BALB/C mice that had received oral doses of RAP (100 mg/kg/mice) were collected at 0, 1, 2, 3, 4, 5 h after oral administration (n=6 each group) for carbohydrates detection by the phenol-sulfuric acid method. […] The plate was then cooled to RT and wiped dry to detect at A490 nm by a microplate reader. […]

The mark [5] stands for this setting: C57BL/6 wild-type mice, 1 hr after injection.

For “FITC-RAP: RAP labeled with fluorescein isothiocyanate isomer I (FITC)”, in data set [1], the “binding to F4/80+ macrophages in the bone marrow” value is “could also bind”. The “binding to CD34+ cells in the bone marrow” value in data set [2] was “binding with CD34+ cells in the bone marrow”. For the same substance, in the data set with GP2+M cells of PPs (setting [5]), the “integrity in PPs (HPGPC-FLD)” value is “undegraded form” and the “localization in gut loop (whole animal imaging)” value was “concentrated in regions associated with PPs”. For the same substance, the “positive signals of FITC-RAP in PPs, GP2-/- versus WT mice” value in the data set on GP2+M cells of PPs (GP2-/- mice, IVIS imaging, HPGPC-FLD) was “significantly decreased”. Moreover, in the data set on GP2+M cells of PPs (wild-type mice), the “internalization into M cells (whole-mount confocal images)” value is reported as “internalized into M cells” and the “uptake by GP2+M cells versus other intestinal epithelial cells (flow cytometry)” value is on record as “GP2+M cells instead of other intestinal epithelial cells accumulated FITC-RAP”. The “co-localization with GP2 receptors on the M cell apical surface (frozen sections)” value with GP2+M cells of PPs (wild-type mice, confocal microscopy) is given as “precisely co-localized”. The “internalization by GP2+M cell in co-culture inserts” value in data set [3] is given as “internalized by GP2+M cell”. The “co-localization of FITC-RAP puncta with GP2” value in the data set on human GP2+M cells (human PP domes, whole-mount staining) is “most of which were positive for GP2”. In addition, the “transport into human PPs by M cells” value in the data set on human GP2+M cells (human distal ileum explants, 5 mg/ml, 2 h) is on record as “could be transported into PPs”. Further, the “fluorescence in the liver, kidney, spleen, mesenteric lymph nodes (MLN), and circulation” value in data set [4] is “no detectable increase”. In data set [4] (100 mg/kg), the “integrity in the caecum and colon (gel permeation chromatography)” value is given as “immediately degraded”; the “integrity in the small intestine (gel permeation chromatography)” value is “remained intact in the small intestine for several hours”.

These data come from patent publication US20250302947A1, “M-cell GP2-mediated lymphatic-targeted drug carriers” (Hong Kong Baptist University, priority 2022, published 2025).
